Results published in PMC11959277, “Trichocystatin-2 from Trichomonas vaginalis: role of N-terminal cysteines in aggregation, protease inhibition, and trichomonal cysteine protease-dependent cytotoxicity on HeLa cells” (Frontiers in Parasitology, 2025).
Values joined by “and” are separate entries in the source; they are usually repeats but may differ in a detail not shown here. Identical values can stand only once.

Experiments:
[1] = target: recombinant TC-2Δ11 deletion mutant (rTC-2Δ11) (Trichomonas vaginalis) (UniProt A2FXT2); assay: SEC; analytical SEC, Superdex 200 pg HiLoad 26/600, 5 mg protein loaded, 50 mM Tris-HCl pH 8.0, 100 mM NaCl, 0.02% NaN3, room temperature (23-25°C); samples stored 1 month at 4°C
[2] = target: recombinant TC-2Δ11 deletion mutant (rTC-2Δ11) (Trichomonas vaginalis) (UniProt A2FXT2); assay: SEC; analytical SEC, Superdex 200 pg HiLoad 26/600, 5 mg protein loaded, 50 mM Tris-HCl pH 8.0, 100 mM NaCl, 0.02% NaN3, room temperature (23-25°C); samples stored 3 months at 4°C
A2FXT2 = assay: SEC; analytical SEC, Superdex 200 pg HiLoad 26/600, 5 mg protein loaded, 50 mM Tris-HCl pH 8.0, 100 mM NaCl, 0.02% NaN3, room temperature (23-25°C); samples stored 1 month at 4°C
[3] = target: the molecule itself; assay: as above
[4] = target: the molecule itself; assay: SEC; analytical SEC, Superdex 200 pg HiLoad 26/600, 5 mg protein loaded, 50 mM Tris-HCl pH 8.0, 100 mM NaCl, 0.02% NaN3, room temperature (23-25°C); samples stored 3 months at 4°C

recombinant TC-2Δ11 deletion mutant (rTC-2Δ11) (from UniProt A2FXT2 12-91) (domain or fragment)
Area (%) of the dimer peak [1]: 19.5%
stoichiometry N [1]: 2
Area (%) of the dimer peak [2]: 25.8%
stoichiometry N [2]: 2

B1: recombinant wild-type trichocystatin-2 (rTC-2) (natural protein)
chain: MSCGGGCCCGAAKPANVQDEHVIQAFKDAIALGNQKNGTTLEYIQLLSATQKVVSGYIFEGVVKTNDGDYKVKIWCKPGNTEKELQLFEKA
notes: trichocystatin-2 (TC-2), Trichomonas vaginalis, TrichDB TVAG_272260; 10-kDa cystatin of the stefin type; the TC-2 gene cloned in pCold I as in Puente-Rivera et al., 2014; No tag removal is described; Mixture of monomer, dimer and higher forms in SEC
Area (%) of the peak of high molecular weight aggregates (A2FXT2): 2.2%
stoichiometry N [3]: 2
stoichiometry N [4]: 2 and 4
